# Source: the supplement of paper PMC9170038
# System: MS2 coat protein
# Test: apparent KD of MS2 coat protein; designed switch direction (-1 OFF switch, 1 ON switch): -1; higher = weaker reporter binding
# Procedure, shortened: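 Designed RNA switches with common flanks were made on Illumina chips by stalled E. coli RNA polymerase. Titration with SNAP-549-labelled MS2 coat protein doubled from 0.7 or 1.5 nM up to 3 µM. Apparent KD is each design's median over clusters after curve-fitting normalised fluorescence.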
# [1] = input ligand: microRNA oligo, concentration not stated
# [2] = Eterna round: R95, input ligand: microRNA oligo, concentration not stated
# [3] = Eterna round: R95, input ligand: FMN 200 uM
# [4] = Eterna round: R95, input ligand: none
Sequence,apparent KD of MS2 coat protein (input ligand: FMN 200 uM) [nM],apparent KD of MS2 coat protein [1] [nM],apparent KD of MS2 coat protein (input ligand: none) [nM],apparent KD of MS2 coat protein [2] [nM],apparent KD of MS2 coat protein [3] [nM],apparent KD of MS2 coat protein [4] [nM]
"GAUCCACAUGAGGAUCACCCAUGUGAGGAUAUGAUACUAUGUACUUCGGUACAUAGUAUCAGAAGGCAUAUGAA [Ex1-3: 47] (Eterna round: R96, puzzle: Exclusion 1)",199,33.2,41.7,–,–,–
GAUCCACAUGAGGAUCACCCAUGUGAGGAUAUGAUACUAUGUACUUCGGUACAUAGUAUCAGAAGGCAUAUGAA [Ex1-3: 47] (puzzle: Exclusion 1),–,–,–,45.6,–,–
"GAUCCGUUAGGAUAUGCGGGUGUCACCAGAGUGAUAGCCUCGCAGAAGGAACAUGAGGAUCACCCAUGUAGCAA [Eternabot (L1) Solution 92] (Eterna round: R97, puzzle: Exclusion 4)",111,–,38.6,–,–,–
"GAUCGACAUGAGGAUCACCCAUGUCAGGAUAUCUACAUUGAAGCUUCGGCUUCAAUGUAGAGAAGGGACAUAAU [E1/13-B1] (Eterna round: R97, puzzle: Exclusion 1)",38.6,–,39.7,–,–,–
GAUCGUUUAGAGGAUAUCAUGCUAAACAUUACAUGAGAAGGCUAGACAUGAGGAUCACCCAUGUAUGCUCGUGA [Exclusion 6 - 9:a] (puzzle: Exclusion 6),–,–,–,14,20.8,14.8
"GAUGAGGUAGGAUAUACGAUAAUAUAGGGUAGAUAUAUAACACAUGAGGAUCACCCAUGUAGAAGGACCAGUAG [Mat - Exclusion 2 - Mod of my Tesla design - D66] (Eterna round: R96, puzzle: Exclusion 2)",143,30.3,42.3,–,–,–
GAUGAGGUAGGAUAUACGAUAAUAUAGGGUAGAUAUAUAACACAUGAGGAUCACCCAUGUAGAAGGACCAGUAG [Mat - Exclusion 2 - Mod of my Tesla design - D66] (puzzle: Exclusion 2),–,–,–,33.4,–,–
"GAUGCUUCGGCAUCUACAAGCUUUUUGCUCGUCUUAUUAACAUGAGGAUCACCCAUGUACAAGAGACCUCAUGUAUU [Sensor v3 - turn-off variant 2 - 12] (puzzle: Sensor v3, turn-off variant 2)",–,–,–,14.3,125,202
"GAUUAACAUGAGGAUCACCCAUGUGAGGAUAUUGACUUGCUCACUUUCCCAUUAGAGUCGAGAAGGCGCAUCUU [1986#18] (Eterna round: R97, puzzle: Exclusion 1)",25.2,–,28.6,–,–,–
"GAUUAACAUGAGGAUCACCCAUGUGAGGAUAUUGACUUGCUCACUUUCCCAUUUGAGUCGAGAAGGCGCAUCUG [1986#22] (Eterna round: R97, puzzle: Exclusion 1)",68.8,–,39,–,–,–
"GAUUACCUAACAAGUAAGCACAUGAGGAUCACCCAUGUGGAGGGUCAUGUCAUGCUCAAGAUGCUCGUCAUUUCUAG [Eternabot (L2) Solution 38] (Eterna round: R97, puzzle: Sensor, turn-off variant 1)",180,–,193,–,–,–
"GAUUAUGCAAGCUUUAGGGACAUGAGGAUCACCCAUGUUCGUCUUAUUGAUCUAGGUACGCUGACGUACCUAGAUCU [JL-sv1-2.32 Brourd mod] (puzzle: Sensor v3, turn-off variant 1)",–,–,–,44.6,17,14.8
"GAUUAUGCGAGCUUUAGGGACAUGAGGAUCACCCAUGUUCGUCUUAUUAAUCUAGGUGCACUGACAUACCUAAAUCU [JMF 87] (puzzle: Sensor v3, turn-off variant 1)",–,–,–,30,20.7,21.7
"GAUUAUGCGAGCUUUAGGGACAUGAGGAUCACCCAUGUUCGUCUUAUUGGUCUGAAUGCACUGACAUACCUAAAUCU [JMF 76] (puzzle: Sensor v3, turn-off variant 1)",–,–,–,24.2,18.7,17.5
"GAUUAUGCGAGCUUUAGGGACAUGAGGAUCACCCAUGUUCGUCUUGUUGAUCUAGGUGCACUAACAUACCUAAAUCU [JMF 33] (puzzle: Sensor v3, turn-off variant 1)",–,–,–,28.7,24.7,22.6
"GCAAAAUAUCAGGAUAUGACUAGCUGCGGCUAGUCAGAAGGGAUAACAUGAGGAUCACCCAUGUGAUAAAGUGU [JR_Ex6_Sub029] (Eterna round: R97, puzzle: Exclusion 6)",66.7,–,60.4,–,–,–
"GCAAAAUAUCAGGAUAUGACUUUUUGCGUUAAGUCAGAAGGGAUAACAUGAGGAUCACCCAUGUGAUAUAGUGU [JR_Ex6_Sub031] (Eterna round: R97, puzzle: Exclusion 6)",261,–,177,–,–,–

Sequence,apparent KD of MS2 coat protein (input ligand: FMN 200 uM) [nM],apparent KD of MS2 coat protein [1] [nM],apparent KD of MS2 coat protein (input ligand: none) [nM],apparent KD of MS2 coat protein [2] [nM],apparent KD of MS2 coat protein [3] [nM],apparent KD of MS2 coat protein [4] [nM]
"GCAAGCAGCUUGGAAUGAGACAUGAGGAUCACCCAUGUUCAGCACAAAGCCUUCAAUCAUCAGCUCGAAAGUAAAUG [Eternabot (L2) Solution 16] (Eterna round: R97, puzzle: Sensor, turn-off variant 1)",14.7,–,16.3,–,–,–
"GCAAGCUUUUUGGUUUUCAACAUGAGGAUCACCCAUGUUCGUCUUGUGCUCGGGCUUGGGCGGUGUCCGGGUUUGGG [Default title] (Eterna round: R97, puzzle: Sensor, turn-off variant 1)",45.8,–,48.5,–,–,–
"GCAAGUUUUUUGUUUUUUAACAUGAGGAUCACCCAUGUAUUUUUAUAGUAUGUGUGAUUAAGAUCUUGUGGUCUUAG [JR_SV3TOV1_Sub101] (puzzle: Sensor v3, turn-off variant 1)",–,–,–,92.2,59.1,62.9
"GCACGGAAUGCAGGAUAUCUGUGCGAUUAGCUCAGAGAAGGGCACAUGAGGAUCACCCAUGUGUAUAAAACACAAAAUCCGUGC [Eli exng1 - 067] (Eterna round: R96, puzzle: Exclusion NG 1)",13.5,7.71,13.8,–,–,–
"GCACGGAGUGUAGGAUAUCUGUGCGAUUAGCUCAGAGAAGGACACAUGAGGAUCACCCAUGUGUUCCACGGAAACGUACCGUGC [Eli exng1 - 050] (Eterna round: R96, puzzle: Exclusion NG 1)",11.2,8.87,12.5,–,–,–
"GCACGGAGUGUAGGAUAUCUGUGCGAUUAGCUCAGAGAAGGACACAUGAGGAUCACCCAUGUGUUCCUCGGAAACGAACCGUGC [Eli exng1 - 051] (Eterna round: R96, puzzle: Exclusion NG 1)",32.2,10.9,14,–,–,–
"GCACGGAUGGUAGGAUAUCAGUGCGAUUAGCUCUGAGAAGGACCACAUGAGGAUCACCCAUGUACCUCAAUUAUCCUUCCGUGC [Eli exng1 - 022] (Eterna round: R96, puzzle: Exclusion NG 1)",13.8,11.3,17.7,–,–,–
"GCACGGGUGGUAGGAUAUCCUUGCGAUUAGCAAGGAGAAGGACCACAUGAGGAUCACCCAUGUACCUCAAUUAUCCUUCCGUGC [Eli exng1 - 024] (Eterna round: R96, puzzle: Exclusion NG 1)",16.8,10.4,14.5,–,–,–
"GCACUGCGAGGAUAUACAUGAGGAUCACCCAUGUGUCGGCAGACAUGUUAUUUCUAAUGUAGAAGGCGCGUAAA [JR_Ex3_Sub002] (Eterna round: R97, puzzle: Exclusion 3)",340,–,68.8,–,–,–
"GCACUGCGAGGAUAUACAUGAGGAUCACCCAUGUGUCGGCAGCCACGGUAGUACAAGUGUAGAAGGCGCGUUAG [EX3 #47] (Eterna round: R97, puzzle: Exclusion 3)",140,–,69.1,–,–,–
"GCAGCAACUCUAAUCAACCAAACAUGAGGAUCACCCAUGUCUCAGGAUAUGGUCUGGAUUACAGGCCAGAAGGGAGAAAGCUGC [Eli exng3 - 044] (Eterna round: R96, puzzle: Exclusion NG 3)",9,9.77,13.4,–,–,–
"GCAGCAUAGUUUACUAACUGUUACAUGAGGAUCACCCAUGUUCAGGAUAUGGUCUGGAUUACAGGCCAGAAGGGAGCAAGCUGC [Eli exng3 - 027] (Eterna round: R96, puzzle: Exclusion NG 3)",13.3,10.7,13.8,–,–,–
"GCAGCAUAGUUUACUAACUGUUACAUGAGGAUCACCCAUGUUUAGGAUAUGGUCUGGAUUACAGGCCAGAAGGGAACAAGCUGC [Eli exng3 - 032] (Eterna round: R96, puzzle: Exclusion NG 3)",–,10.3,–,–,–,–
"GCAGCUAGUUCAGGAUAUCAGCACGUUUAGUGCUGAGAAGGGAACAUGAGGAUCACCCAUGUGAUCAAUGCUGCAAUUUUAAUU [ENG1/12-A2] (Eterna round: R96, puzzle: Exclusion NG 1)",1470,776,717,–,–,–
"GCAGGCGUCUAGGCUCGUCUUAUUUUGAGAAGAUUGAUAACAUGAGGAUCACCCAUGUUUGUGGGAGAGUUGGAGUG [JR_SV3TOV2_Sub014] (puzzle: Sensor v3, turn-off variant 2)",–,–,–,258,159,209
GCAUACUAAGGAUAUACAUGAGGAUCACCCAUGUUGCCAAAUGGCAGCAUCACCUGGAGUAGAAGGUAGAUGUA [Atanbi] (puzzle: Exclusion 3),–,–,–,29.7,–,–
